Source: PMC11849073, “Specific recognition mechanism of an antibody to sulfated tyrosine and its potential use in biological research” (The Journal of Biological Chemistry, 2025)

Tests used:
[1] = molecular target: BA8 Fab Y31 A mutant (heavy chain) (rabbit); test: SPR; Biacore 8K; each Fab immobilised on a CM5 chip by amine coupling (pH 5.5, about 3000 RU); peptides as analytes, 2 to 162 nM (20 nM to 1620 nM for the R34 A, S52 A and Y57 A mutants of Fig. 3C); PBS with 0.005% Tween 20; 30 μl/min; global fitting
[2] = molecular target: BA8 Fab N55 A mutant (heavy chain) (rabbit); test: as above
[3] = molecular target: BA8 Fab Y57 F mutant (heavy chain) (rabbit); test: as above
[4] = molecular target: BA8 Fab W46 A mutant (heavy chain) (rabbit); test: as above
[5] = molecular target: BA8 Fab S32 A mutant (heavy chain) (rabbit); test: as above
[6] = molecular target: BA8 Fab S30 A mutant (heavy chain) (rabbit); test: as above
[7] = molecular target: BA8 Fab LC S98 A mutant (light chain) (rabbit); test: as above
[8] = molecular target: BA8 Fab Y57 A mutant (heavy chain) (rabbit); test: as above
[9] = molecular target: BA8 Fab Y31 A mutant (heavy chain) (rabbit); test: ITC; MicroCal PEAQ-ITC; 10 μM BA8 Fab in the cell, 100 μM CCR5 N-terminal peptide in the syringe; PBS; 25 °C (297 K in the table's footnote); one set of sites
[10] = molecular target: BA8 Fab N55 A mutant (heavy chain) (rabbit); test: as above
[11] = molecular target: BA8 Fab Y57 F mutant (heavy chain) (rabbit); test: as above
[12] = molecular target: BA8 Fab W46 A mutant (heavy chain) (rabbit); test: as above
[13] = molecular target: BA8 Fab S32 A mutant (heavy chain) (rabbit); test: as above
[14] = molecular target: BA8 Fab S30 A mutant (heavy chain) (rabbit); test: as above
[15] = molecular target: BA8 Fab LC S98 A mutant (light chain) (rabbit); test: as above
[16] = molecular target: BA8 Fab Y57 A mutant (heavy chain) (rabbit); test: as above
[17] = molecular target: BA8 Fab S52 A mutant (heavy chain) (rabbit); test: as above
Chain of BA8 Fab S52 A mutant (heavy chain) (rabbit) (heavy, as listed by the source, chain 1 of 2): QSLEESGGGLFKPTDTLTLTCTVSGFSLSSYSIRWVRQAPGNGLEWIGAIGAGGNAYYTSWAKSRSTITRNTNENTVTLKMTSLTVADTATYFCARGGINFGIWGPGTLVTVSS
Chain of BA8 Fab S52 A mutant (heavy chain) (rabbit) (light, as listed by the source, chain 2 of 2): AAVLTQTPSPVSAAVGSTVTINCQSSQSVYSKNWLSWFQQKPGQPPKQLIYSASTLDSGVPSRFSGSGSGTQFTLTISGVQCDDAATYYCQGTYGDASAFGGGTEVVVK

Chain of BA8 Fab S30 A mutant (heavy chain) (rabbit) (heavy, as listed by the source, chain 1 of 2): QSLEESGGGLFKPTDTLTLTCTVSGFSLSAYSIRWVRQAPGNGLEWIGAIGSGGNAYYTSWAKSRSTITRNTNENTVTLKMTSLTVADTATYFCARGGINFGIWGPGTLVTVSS
Chain of BA8 Fab Y57 A mutant (heavy chain) (rabbit) (heavy, as listed by the source, chain 1 of 2): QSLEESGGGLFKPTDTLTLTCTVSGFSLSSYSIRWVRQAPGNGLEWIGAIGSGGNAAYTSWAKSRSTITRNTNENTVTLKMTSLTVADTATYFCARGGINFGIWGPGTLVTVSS
Chain of BA8 Fab LC S98 A mutant (light chain) (rabbit) (heavy, as listed by the source, chain 1 of 2): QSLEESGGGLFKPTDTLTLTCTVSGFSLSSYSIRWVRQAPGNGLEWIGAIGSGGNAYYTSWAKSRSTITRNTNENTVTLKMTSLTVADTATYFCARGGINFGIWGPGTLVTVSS
Chain of BA8 Fab LC S98 A mutant (light chain) (rabbit) (light, as listed by the source, chain 2 of 2): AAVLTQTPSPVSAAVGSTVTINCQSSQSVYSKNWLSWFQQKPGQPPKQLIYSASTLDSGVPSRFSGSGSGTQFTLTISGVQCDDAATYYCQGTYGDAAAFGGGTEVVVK
Chain of BA8 Fab Y31 A mutant (heavy chain) (rabbit) (heavy, as listed by the source, chain 1 of 2): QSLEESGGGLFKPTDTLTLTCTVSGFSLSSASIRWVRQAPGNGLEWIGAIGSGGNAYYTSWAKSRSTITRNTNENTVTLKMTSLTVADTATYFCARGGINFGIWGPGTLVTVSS
Chain of BA8 Fab W46 A mutant (heavy chain) (rabbit) (heavy, as listed by the source, chain 1 of 2): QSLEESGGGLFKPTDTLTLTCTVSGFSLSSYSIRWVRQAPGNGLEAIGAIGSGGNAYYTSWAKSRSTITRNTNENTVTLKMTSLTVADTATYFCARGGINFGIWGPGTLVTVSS
Chain of BA8 Fab S32 A mutant (heavy chain) (rabbit) (heavy, as listed by the source, chain 1 of 2): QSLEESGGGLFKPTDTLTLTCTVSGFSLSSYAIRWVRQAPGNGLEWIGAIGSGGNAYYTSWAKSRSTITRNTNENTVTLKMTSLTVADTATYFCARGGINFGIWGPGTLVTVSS
Chain of BA8 Fab Y57 F mutant (heavy chain) (rabbit) (heavy, as listed by the source, chain 1 of 2): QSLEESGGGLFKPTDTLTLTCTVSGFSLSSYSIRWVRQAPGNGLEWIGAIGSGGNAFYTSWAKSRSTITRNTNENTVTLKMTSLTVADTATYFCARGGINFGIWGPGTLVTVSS
Chain of BA8 Fab N55 A mutant (heavy chain) (rabbit) (heavy, as listed by the source, chain 1 of 2): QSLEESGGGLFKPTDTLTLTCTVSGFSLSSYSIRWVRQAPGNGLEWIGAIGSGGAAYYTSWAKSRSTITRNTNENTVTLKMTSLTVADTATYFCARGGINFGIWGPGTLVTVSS

sulfated N-terminal peptide of CCR5 (Pro8 to Ser18 with sulfated Tyr10, Tyr14 and Tyr15)
Kd [1]: 18.6 nM | Kd [2]: 1.8 nM | Kd [3]: 2.36 nM | Kd [4]: 21.8 nM | Kd [5]: 1.94 nM | Kd [6]: 1.44 nM | Kd [7]: 2.41 nM | Kd [8]: 446 nM | Kd [9]: 4.41 nM | dH [9]: -22.8 kcal/mol | stoichiometry N [9]: 0.839 sites | dH [10]: -27.6 kcal/mol | stoichiometry N [10]: 0.844 sites | Kd [11]: 10.5 nM | dH [11]: -25 kcal/mol | stoichiometry N [11]: 0.896 sites | Kd [12]: 6.1 nM | dH [12]: -27.2 kcal/mol | stoichiometry N [12]: 0.824 sites | dH [13]: -26 kcal/mol | stoichiometry N [13]: 0.903 sites | dH [14]: -25.8 kcal/mol | stoichiometry N [14]: 0.892 sites | dH [15]: -26.2 kcal/mol | stoichiometry N [15]: 0.924 sites | Kd [16]: 73.7 nM | dH [16]: -21.7 kcal/mol | stoichiometry N [16]: 0.854 sites | Kd [17]: 726 nM | dH [17]: -16.6 kcal/mol | stoichiometry N [17]: 0.796 sites
